{
  "source": "patent CN117736314A",
  "key": {"[1]": {"molecular_target": "SARS-CoV-2 Omicron BA.5 S蛋白 (病毒颗粒上) (SARS-CoV-2)", "assay": "cell-based or functional assay"}, "[2]": {"molecular_target": "SARS-CoV-2 Omicron(BA.2) S蛋白 (病毒颗粒上) (SARS-CoV-2)", "assay": "cell-based or functional assay"}},
  "data": [
    {"substance": "LY-CoV1404(bebtelovimab) (antibody)", "values": [
      {"measurement": "IC 50 (ng/mL), live virus neutralisation, FFA on Vero cells", "setting": "[1]", "value": 7.99, "unit": "ng/mL"},
      {"measurement": "IC 50 (ng/mL), live virus neutralisation, FFA on Vero cells", "setting": "[2]", "value": 11.2, "unit": "ng/mL"}
    ]}
  ]
}
